# Target: SARS-CoV-2 2P S ectodomain trimer (SARS-CoV-2 (YP_009724390), UniProt P0DTC2, stabilised)
# Experiment: BLI
binder,measurement,value
"B6 monoclonal antibody (recombinant IgG with human constant regions) (antibody, V domains shown) VH: EVQLQQSGPVLVKPGASVRMSCKASGYTITDYYLNWVKQSHGKSLEWLGVLNPYSGGSLYSQTFKGKATLTVDRSSSTAYLELNSLTSEDSAVYYCARQLGRGNGLDYWGQGTSVTVSS VL: NIMMTQSPSSLAVSAGEKVTMSCKSSQSVLHSSDQKNYLAWYQQKPGQSPKLLIYWASTRESGVPDRFTGSGSGTDFTLTISSVQAEDLAVYFCHQYLSSYTFGGGTKLEIK",binding result,binds
